Substitutions are numbered along the chain they refer to. Blank lines part the entries; values can stand above or below the binder they belong to.
Molecular target: T1, human PD-L1 (hPD-L1) (human, UniProt Q9NZQ7 19-290)
T1 construct: Endogenous hPD-L1 on JIMT1 (JIMT-1) cells; also called programmed death-ligand 1; CD274
Assay: flow cytometry on JIMT-1 cells expressing endogenous human PD-L1; anti-human IgG Fc secondary; geometric MFI
Experimental: Binding of the binding agents of an embodiment of the invention to human PD-L1 (hPD-L1) on cell surfaces was assessed by incubating the binding agents with JIMT1 cells that express endogenous hPD-L1. Briefly, the binding agents were diluted serially in FACS buffer (PBS+1% FBS+5 mM EDTA, pH 7.4) at 4° C. Diluted binding agents were applied to JIMT1 cells (˜1×10⁵-2×10⁵ per well) and incubated at 4° C. […] After unbound secondary antibody was washed out, cells were resuspended in FACS buffer plus 2% formaldehyde and analyzed by flow cytometry. The intensity of fluorescence, expressed as geometric mean fluorescence intensity, was used to determine anti-PDL1 binding agent binding to hPD-L1 on cell surface.

T1 sequence (Q9NZQ7 19-290 limits assumed): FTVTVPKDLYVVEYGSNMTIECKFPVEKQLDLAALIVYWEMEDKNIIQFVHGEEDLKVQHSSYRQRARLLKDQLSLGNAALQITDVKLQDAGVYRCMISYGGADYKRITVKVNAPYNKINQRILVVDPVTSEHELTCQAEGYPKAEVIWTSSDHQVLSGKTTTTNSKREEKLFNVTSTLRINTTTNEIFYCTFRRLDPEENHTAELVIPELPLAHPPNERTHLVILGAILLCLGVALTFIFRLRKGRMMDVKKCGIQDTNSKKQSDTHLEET

binding result: binds
B17: 20 (antibody, V domains shown)
VH: QVQLVQSGAEVKKPGASVKVSCKASGYTFTDYYMHWVRQAPGQGLEWMGWMHPNSGHTGYAQKFQGRVTMTRDTSTSTVNMELSSLRSEDTAVYYCAREEWLGHFQHWGQGTLVTVSS
VL: DIQMTQSPSSLSASVGDRVTITCRASQSISSWLAWYQQKPGKAPKLLIYDATHLETGVPSRFSGSGSGTDFTLTISSLQPEDFATYYCQQSYSTPITFGQGTRLEIK

binding result: binds
B18: 26 (antibody, V domains shown)
VH: QVQLAQSGAEVKKPGASVKVSCKASGYTFTNHYMHWVRQAPGQGLEWMGWMNPNSGNTGYAQKFQGRVTMTRDTSTSTVYMELSSLRSEDTAVYYCARDRWDGDYYSAWGQGTLVTVSS
VL: B17 VL with S31N, A51V, T52S, T56S, I96F, Q100P, R103K, L104V, E105D

binding result: binds
B19: 30 (antibody, V domains shown)
VH: QVQLVQSGAEVKKPGASVKVSCKASGYPFSTYYMHWVRQAPGQGLEWMGWMNPHSADTGYAEKFQGRVTMTRDTSTSTVYMELSSLRSEDTAVYYCAREVFEGGMDVWGQGTTVTVSS
VL: DIQMTQSPSSLSASVGDRVTITCRASQSVGSWVAWYQQKPGKAPKLLIYPASTLQSGVPSRFSGSGSGTDFTLTISSLQPEDFATYYCQQSYSTPLTFGGGTKVEIK

binding result: binds
B20: 29 (antibody, V domains shown)
VH: QVQLVQSGAEVKKPGASVKVSCKASGYTFSNSYMHWVRQAPGQGLEWMGWMDPSSGYTGSAHKFQGRVTMTRDTSTSTVYMELSSLRSEDTAVYYCAEDSGGAFDIWGQGTMVTVSS
VL: DIQMTQSPSSLSASVGDRVTITCRASEHIANWLAWYQQKPGKAPKLLIYGVSSLESGVPSRFSGSGSGTDFTLTISSLQPEDFATYYCQQSYSTPYTFGQGTKLEIK

binding result: binds
B21: 31 (antibody, V domains shown)
VH: QVQLVQSGAEVKKPGASVKVSCKASGYTFTSYYMHWVRQAPGQGLEWMGWLTPSTGHAGYAQKFQGRVTMTRDTSTSTVYMELSSLRSEDTAVYYCAREGYGGNYGNWGQGTLVTVSS
VL: B17 VL with S31P, T52S, H53N, S91T

binding result: binds
B22: 24 (antibody, V domains shown)
VH: QVQLVQSGAEVKKPGASVKVSCKASGDTFTNHYMHWVRQAPGQGLEWMGWMNPNSGHTGYAQRFQGRVTMTRDTSTSTVYMELSSLRSEDTAVYYCAREAVAGPMDVWGQGTTVTVSS
VL: not shown

binding result: binds
B23: 25 (antibody, V domains shown)
VH: QVQLVQSGAEVKKPGASVKVSCKASGYTFTGYYMHWVRQAPGQGLEWMGWMNPNSDIAGYAQKFQGRVTMTRDTSTSTVYMELSSLRSEDTAVYYCARDAWELLAFDIWGQGTLVTVSS
VL: B20 VL with E27Q, H28S, I29V, A30S, N31T, G50A, V51A, S53N

binding result: binds
B24: 28 (antibody, V domains shown)
VH: B22 VH with D27Y, N31S, H32Y, H57N, R63K, A100R, V101F, P104G, V107A
VL: EIVMTQSPATLSVSPGERATLSCRASQSLSSSSLAWYQQKPGQAPRLLIYGASTRATGIPARFSGSGSGTEFTLTISSLQSEDFAVYYCQQYGSSPFTFGPGTKVDIK

The remaining lines, values behind:

B1: 17 (antibody, V domains shown)
VH: QVQLVQSGAEVKKPGASVKVSCKASGDTFTRHYVHWVRQAPGQGLEWMGWMSPSSGITGYAQKFQGRVTMTRDTSTSTVYMELSSLRSEDTAVYYCARVRWSSDAFDIWGQGTLVTVSS
VL: not shown
binding result: binds

B2: 11 (antibody, V domains shown)
VH: QVQLVQSGAEVKKPGASVKVSCKASGYTFTNYYIHWVRQAPGQGLEWLGWMNPNGDVAGYADSFQGRVTMTRDTSTSTVYMELSSLRSEDTAVYYCAIDSSGWMRNDAFDIWGQGTLVTVSS
VL: DIQMTQSPSSLSASVGDRVTITCRASQGISQYLAWYQQKPGKAPKLLIYGASNLHSGVPSRFSGSGSGTDFTLTISSLQPEDFATYYCQQTFITPLTFGGGTKVEIK
binding result: binds

B3: 32 (antibody, V domains shown)
VH: B17 VH with D31S, H52N, N80Y, E100D, W101F, L102Y, H104D, Q106D, H107Y
VL: B2 VL with Q31R, G50A, N53T, H55Q, T91S, F92Y, I93S, G100Q
binding result: binds

B4: 2 (antibody, V domains shown)
VH: QVQLVQSGAEVKKPGASVKVSCKASGYTFTSYYMHWVRQAPGQGLEWMGWMNPNSDIAGYAQKFQGRVTMTRDTSTSTVYMELSSLRSEDTAVYYCAIPSIVGAYDAFDIWGQGTLVTVSS
VL: B19 VL with V29I, G30S, V33L, P50A, T53S, S93T, L96I
binding result: binds

B5: 9 (antibody, V domains shown)
VH: QVQLVQSGAEVKKPGASVKVSCKASGHSFTHYYMHWVRQAPGQGLEWMGWMNPDSGSTGYAQKFQGRVTMTRDTSTSTVYMELSSLRSEDTAVYYCARALFPYPFYYYYMDVWGQGTLVTVSS
VL: DIQMTQSPSSLSASVGDRVTITCRASQGIRNDLGWYQQKPGKAPKLLIYSASNLQSGVPSRFSGSGSGTDFTLTISSLQPEDFATYYCQQANSFPFTFGGGTKVEIK
binding result: binds

B6: 16 (antibody, V domains shown)
VH: QVQLVQSGAEVKKPGSSVKVSCKASGGTFSSYAISWVRQAPGQGLEWMGGIIPIFGTANYAQKFQGRVTITADESTSTAYMELSSLRSEDTAVYYCARGGYSYGSFQHWGQGTLVTVSS
VL: B5 VL with R30S, D32N, G34N, S50A, S52T, N53T, A91S, N92Y, F94T, F96Y
binding result: binds

B7: 27 (antibody, V domains shown)
VH: QVQLVQSGAEVKKPGASVKVSCKASGYTFTNYYIHWVRQAPGQGLEWMGWMSPNGGNTGYAQKFQGRVTMTRDTSTSTVYMELSSLRSEDTAVYYCARESWELTGFDYWGQGTLVTVSS
VL: B2 VL with R24Q, Q31N, G50D, N53S, H55Q, T91S, F92Y, I93S
binding result: binds

B8: 1 (antibody, V domains shown)
VH: QVQLVQSGAEVKKPGASVKVSCKASGGTFSSYAISWVRQAPGQGLEWMGVINPSAGSTDYAQKFQGRVTMTRDTSTSTVYMELSSLRSEDTAVYYCARDLYPYVVVVAAGSYGMDVWGQGTLVTVSS
VL: B19 VL with S28G, V29I, G30D, W32Y, V33L, P50A, T53S, L96I
binding result: binds

B9: 18 (antibody, V domains shown)
VH: B17 VH with D31S, M48V, H52T, N54S, S55T, H57N, T58A, N80Y
VL: B5 VL with R30S, D32G, G34S, S50A, N53T, A91S, N92H, F94T, F96L
binding result: binds

B10: 13 (antibody, V domains shown)
VH: QVQLVQSGAEVKKPGASVKVSCKASGYPFTSYYMHWVRQAPGQGLEWMGWMNPNSDIAGYAQKFQGRVTMTRDTSTSTVYMELSSLRSEDTAVYYCAREGRHGEYLYWGQGTLVTVSS
VL: B2 VL with G28I, Q31S, A34N, G50A, N53S, H55Q, T91G, I93S, L96F
binding result: binds

B11: 36 (antibody, V domains shown)
VH: B6 VH with S31T, Y32F, A33G, Q107D, H108Y
VL: B20 VL with E27Q, H28G, A30S, W32N, A34N, G50A, V51T, S53T, E55Q, L104V
binding result: binds

B12: 12 (antibody, V domains shown)
VH: QVQLVQSGAEVKKPGASVKVSCKASGGTFSNYMYHWVRQAPGQGLEWMGWISTYHGSTNYAQKFQGRVTMTRDTSTSTVYMELSSLRSEDTAVYYCARDARGYSGYDLWGQGTLVTVSS
VL: DIQMTQSPSSLSASVGDRVTITCRASQIIGNYLAWYQQKPGKAPKLLIYHASILETGVPSRFSGSGSGTDFTLTISSLQPEDFATYYCQQSYSTPTFGGGTKVEIK
binding result: binds

B13: 14 (antibody, V domains shown)
VH: QVQLVQSGAEVKKPGASVKVSCKASGYRFTTYYVHWVRQAPGQGLEWMGWMNPNTVYTGSAQKFQGRVTMTRDTSTSTVYMELSSLRSEDTAVYYCAREGWGSSGYFDYWGQGTLVTVSS
VL: DIQMTQSPSSLSASVGDRVTITCQASQDISNYLNWYQQKPGKAPKLLIYAASSLQSGVPSRFSGSGSGTDFTLTISSLQPEDFATYYCQQSFTNPVTFGGGTKVEIK
binding result: binds

B14: 23 (antibody, V domains shown)
VH: QVQLVQSGAEVKKPGASVKVSCKASGYTFTGYYMHWVRQAPGQGLEWMGWISPNSGVTDFTQKFQGRVTMTRDTSTSTVYMELSSLRSEDTAVYYCARESWSGEFDYWGQGTLVTVSS
VL: B13 VL with Q24R, D28S, S30T, N31T, S56G, F92Y, T93S, N94T, V96Y, G100Q
binding result: binds

B15: 22 (antibody, V domains shown)
VH: QVQLVQSGAEVKKPGASVKVSCKASGYTFTGYTLHWVRQAPGQGLEWMGWIDPNSGVTSSAQKFQGRVTMTRDTSTSTVYMELSSLRSEDTAVYYCARESEVMMAYFQHWGQGTLVTVSS
VL: B13 VL with N31S, S56T, F92Y, T93S, N94T, V96Y, G100Q, V104L
binding result: binds

B16: 19 (antibody, V domains shown)
VH: B22 VH with D27Y, N31S, H57N, R63K, A100R, V101F, A102L, P104G
VL: B20 VL with E27Q, H28S, A30T, N31G, G50A, V51A, E55Q, L104V
binding result: binds

— patent US20230086603A1 (BOLT BIOTHERAPEUTICS, published 2023)
